Our source for the Kd and IC50 values is US20120130079A1.

The target of assay [1] is purified His-tagged Stat3 (murine Stat3, recombinant, expressed in BL21(DE3)) (murine) (UniProt P42227). Description: SPR (SensiQ), peptide as analyte over His-Stat3 immobilised on HisCap/Ni-NTA sensor chip.
The target is the same in assay [2]. The experiment in a line: fluorescence polarization competition; competitor/probe 5-carboxyfluorescein-GpYLPQTV-NH2 (10 nM), His-Stat3 150 nM. (In general: In fluorescence polarisation assays a small probe gives low polarisation when free and higher when bound to something large.)

purified His-tagged Stat3 (murine Stat3, recombinant, expressed in BL21(DE3)) (murine), sequence (P42227 whole entry): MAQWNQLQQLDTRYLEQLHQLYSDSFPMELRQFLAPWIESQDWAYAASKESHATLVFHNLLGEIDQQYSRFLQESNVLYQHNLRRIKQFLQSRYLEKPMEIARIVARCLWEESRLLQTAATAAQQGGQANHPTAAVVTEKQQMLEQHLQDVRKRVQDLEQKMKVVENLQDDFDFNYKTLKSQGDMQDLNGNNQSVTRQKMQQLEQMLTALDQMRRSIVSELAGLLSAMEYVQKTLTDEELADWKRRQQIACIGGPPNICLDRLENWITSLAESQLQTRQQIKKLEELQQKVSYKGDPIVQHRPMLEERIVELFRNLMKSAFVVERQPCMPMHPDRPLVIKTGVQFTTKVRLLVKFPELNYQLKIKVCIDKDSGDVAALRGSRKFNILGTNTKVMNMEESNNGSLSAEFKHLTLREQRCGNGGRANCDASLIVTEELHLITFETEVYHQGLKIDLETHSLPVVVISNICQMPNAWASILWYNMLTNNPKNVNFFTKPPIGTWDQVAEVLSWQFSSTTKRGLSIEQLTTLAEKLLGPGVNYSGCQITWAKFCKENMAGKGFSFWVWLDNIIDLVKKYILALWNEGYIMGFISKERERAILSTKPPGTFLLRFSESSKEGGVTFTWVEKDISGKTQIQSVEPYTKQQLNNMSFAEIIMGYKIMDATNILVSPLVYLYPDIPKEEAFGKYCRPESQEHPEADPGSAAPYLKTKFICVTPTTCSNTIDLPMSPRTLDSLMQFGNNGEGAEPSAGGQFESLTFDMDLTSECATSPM

By Kd is commonly meant the constant that tells how readily two partners part at equilibrium. For orientation: IC50 means the concentration that gives 50% inhibition. As for “GpYLPQTV-NH2, high affinity Stat3-binding phosphoTyr peptide derived from the interleukin-6 receptor subunit gp-130”, the Kd in assay [1] is 24 nM. Besides, the half-inhibitory concentration (IC50) in assay [2] is 300 nM.
